Data taken from patent publication US20220002344A1 (CENTRE NATIONAL DE LA RECHERCHE SCIENTIFIQUE, published 2022).
Square brackets hold non-standard residues; d marks the D form. Ends that are not written are not given here. * marks the point of attachment. FITC = O=C1OC2(c3ccc(O)cc3Oc3cc(O)ccc32)c2ccc(NC(=S)*)cc21; Cha = N[C@@H](CC1CCCCC1)C(=O)O

Assays:
[1] = molecular target: T1, E. coli sliding clamp (DnaN protein, β subunit of DNA polymerase III) (E. coli, UniProt P0A988 1-366); experiment: ITC, 30 °C, peptide titrated into E. coli SC
T1 construct: Recombinant DnaN for ITC (a tag from pET15b is implied by the Ni-NTA step but not described); also called ^EcSC; SC

[2] = molecular target: T2, Human PCNA (Proliferating Cell Nuclear Antigen) (Human, UniProt P12004 1-261); experiment: ITC, 30 °C
T2 construct: Source and limits of the construct are not described

[3] = molecular target: T1, E. coli sliding clamp (DnaN protein, β …); experiment: ITC, 30 °C, E. coli SC
[4] = molecular target: T1, E. coli sliding clamp (DnaN protein, β …); experiment: ITC, 25 °C, E. coli SC (beta ring)
[5] = molecular target: T3, E. coli 70S ribosome particle (E. coli); experiment: ITC, 30 °C, peptide titrated into E. coli 70S ribosome
T3 construct: also called ^Ec70S

[6] = molecular target: T1, E. coli sliding clamp (DnaN protein, β …); experiment: ITC, 30 °C
[7] = molecular target: T3, E. coli 70S ribosome particle; experiment: ITC, 30 °C, peptide titrated into E. coli 70S ribosome; values not well defined (footnote *)
[8] = molecular target: T3, E. coli 70S ribosome particle; experiment: ITC, 30 °C as the table's head says, E. coli ribosome
[9] = molecular target: T3, E. coli 70S ribosome particle; experiment: ITC, 30 °C, against Py on the 70S ribosome
[10] = molecular target: T3, E. coli 70S ribosome particle; experiment: ITC, E. coli ribosome (70S)
[11] = molecular target: T3, E. coli 70S ribosome particle; experiment: ITC, 30 °C, against the same peptide on E. coli SC

T1 sequence (P0A988 whole entry): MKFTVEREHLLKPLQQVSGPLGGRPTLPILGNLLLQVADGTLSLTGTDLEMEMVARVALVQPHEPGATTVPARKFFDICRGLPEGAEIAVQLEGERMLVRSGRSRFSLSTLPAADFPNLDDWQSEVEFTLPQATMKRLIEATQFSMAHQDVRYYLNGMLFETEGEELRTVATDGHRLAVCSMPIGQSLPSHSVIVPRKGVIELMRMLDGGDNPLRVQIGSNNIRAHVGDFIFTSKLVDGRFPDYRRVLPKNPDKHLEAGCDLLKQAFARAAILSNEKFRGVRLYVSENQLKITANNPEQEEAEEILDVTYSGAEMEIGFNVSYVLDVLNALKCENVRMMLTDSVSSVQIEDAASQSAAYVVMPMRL
T2 sequence (P12004 whole entry): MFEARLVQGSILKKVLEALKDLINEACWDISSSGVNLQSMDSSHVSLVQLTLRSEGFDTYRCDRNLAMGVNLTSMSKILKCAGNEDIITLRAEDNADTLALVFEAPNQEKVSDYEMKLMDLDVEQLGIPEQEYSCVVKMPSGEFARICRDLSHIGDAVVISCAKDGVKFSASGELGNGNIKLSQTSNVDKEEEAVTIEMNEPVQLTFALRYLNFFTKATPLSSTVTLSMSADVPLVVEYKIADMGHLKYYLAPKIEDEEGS

Row | Binder | -TΔS [1] [kcal/mol] | Kd [1] [nM] | ΔG [1] [kcal/mol] | ΔH [1] [kcal/mol] | Kd [4] [nM] | n [4] | ΔG [4] [kcal/mol] | ΔH [4] [kcal/mol] | -TΔS [5] [kcal/mol] | Kd [5] [nM] | ΔG [5] [kcal/mol] | ΔH [5] [kcal/mol] | binding result [6] | -TΔS [7] [kcal/mol] | ΔG [7] [kcal/mol] | ΔH [7] [kcal/mol] | also measured
1 | Ac-Q[Cha]DLF-OH (SMILES CC(=O)N[C@@H](CCC(N)=O)C(=O)N[C@@H](CC1CCCCC1)C(=O)N[C@@H](CC(=O)O)C(=O)N[C@@H](CC(C)C)C(=O)N[C@@H](Cc1ccccc1)C(=O)O, also called CA2 68; AcQXDLF) [P7 (Ac-QChaDLF-OH)] | 4.71 | 332 | -9 | -13.7 | 170 | 0.9 | -9.2 | -15.4 | – | – | – | – | – | – | – | – | binding result [2]: no binding; Kd [3]: 408 nM; n [3]: 1; ΔH [3]: -12.1 kcal/mol
2 | VDKPPYLPRPRPPR[dR]IYN[dR]NGPR[Cha]FQLD-OH (Control fusion peptide with scrambled P7; also called Onc112-Scr) [P120 (Onc112-P7Scr), VDKPPYLPRPRPPRrIYNrNGPRChaFQLD-OH] | – | – | – | – | – | – | – | – | 3.12 | 101 | -9.85 | -13 | no binding | – | – | – | –
3 | {FITC}-KVDKGSYLPRPTPPRPIYNRNGPR[Cha]FQLD-OH (also called FITC-K-Py-P7Scr; CA4-72) [P72 (FITC-Py-P7Scr), FITC-…haFQLD-OH] | – | – | – | – | – | – | – | – | – | – | – | – | no binding | 2.94 | -5.98 | -8.92 | –
4 | VDKPPYLPRPRPPR[dR]IYN[dR]-NH2 (also called CA3 28; CA3-28) [P28 (Onc112), VDKPPYLPRPRPPRrIYNr-NH2] | – | – | – | – | – | – | – | – | 14 | 84 | -9.82 | -23.9 | no binding | – | – | – | Kd [8]: 241 nM; ΔG [8]: -9.2 kcal/mol; ΔH [8]: -16.2 kcal/mol; fold lower affinity than Py [9]: 5 fold; Kd [10]: 241 nM; n [10]: 1; ΔG [10]: -9.2 kcal/mol; ΔH [10]: -16.2 kcal/mol
5 | Ac-Q[Cha]DLFGPRVDKPPYLPRPRPPR[dR]IYN[dR]-NH2 (SMILES CC[C@H](C)[C@H](NC(=O)[C@@H](CCCNC(=N)N)NC(=O)[C@H](CCCNC(=N)N)NC(=O)[C@@H]1CCCN1C(=O)[C@@H]1CCCN1C(=O)[C@H](CCCNC(=N)N)NC(=O)[C@@H]1CCCN1C(=O)[C@H](CCCNC(=N)N)NC(=O)[C@@H]1CCCN1C(=O)[C@H](CC(C)C)NC(=O)[C@H](Cc1ccc(O)cc1)NC(=O)[C@@H]1CCCN1C(=O)[C@@H]1CCCN1C(=O)[C@H](CCCCN)NC(=O)[C@H](CC(=O)O)NC(=O)[C@@H](NC(=O)[C@H](CCCNC(=N)N)NC(=O)[C@@H]1CCCN1C(=O)CNC(=O)[C@H](Cc1ccccc1)NC(=O)[C@H](CC(C)C)NC(=O)[C@H](CC(=O)O)NC(=O)[C@H](CC1CCCCC1)NC(=O)[C@H](CCC(N)=O)NC(C)=O)C(C)C)C(=O)N[C@@H](Cc1ccc(O)cc1)C(=O)N[C@@H](CC(N)=O)C(=O)N[C@H](CCCNC(=N)N)C(N)=O) [CM1-76 (P7-Onc112), AcQChaDLF-GPR-Onc112-NH2] | – | – | – | – | 258 | 1 | -9 | -10.7 | – | – | – | – | – | – | – | – | –
6 | {FITC}-KVDKGSYLPRPTPPRPIYNRNGPRQ[Cha]DLF-OH (also called FITC-K-Py-P7; CA2-150) [P150 (FITC-Py-P7), FITC-…haDLF-OH] | 8.21 | 390 | -8.99 | -17.2 | – | – | – | – | – | – | – | – | – | 6.7 | -6.27 | -13 | –
7 | VDKGSYLPRPTPPRPIYNRN-NH2 (Bought from Novopro; also called unglycosylated pyrrhocoricin) [Py (Pyrrhocoricin), VDKGSYLPRPTPPRPIYNRN-NH2] | – | – | – | – | – | – | – | – | 8.23 | 15.5 | -10.9 | -19.2 | no binding | – | – | – | –
8 | {FITC}-KVDKGSYLPRPTPPRPIYNRN-NH2 (ends and bridges not checked, also called FITC-K-Py; FITC-K-Pyr) [P122 (FITC-Py), FITC-KVDKGSYLPRPTPPRPIYNRN-NH2] | – | – | – | – | – | – | – | – | – | – | – | – | no binding | 13.3 | -6.91 | -20.1 | –
9 | VDKPPYLPRPRPPR[dR]IYN[dR]NGPRQ[Cha]DLF-OH (Fusion of Onc112 and P7; the printed Mw 3472.08 agrees with that N; also called CA3-30; Onc-P7) [P30 (Onc112-P7), VDKPPYLPRPRPPRrIYNrNGPRQChaDLF-OH] | 4.2 | 205 | -9.28 | -13.5 | 180 | 0.9 | -9.2 | -14.6 | 15.7 | 70.4 | -9.92 | -25.6 | – | – | – | – | fold higher affinity for the ribosome than for SC [11]: 3 fold
10 | VDKGSYLPRPTPPRPIYNRNGPRQ[Cha]DLF-OH (N-terminus assumed; SMILES CC[C@H](C)[C@H](NC(=O)[C@@H]1CCCN1C(=O)[C@H](CCCNC(=N)N)NC(=O)[C@@H]1CCCN1C(=O)[C@@H]1CCCN1C(=O)[C@@H](NC(=O)[C@@H]1CCCN1C(=O)[C@H](CCCNC(=N)N)NC(=O)[C@@H]1CCCN1C(=O)[C@H](CC(C)C)NC(=O)[C@H](Cc1ccc(O)cc1)NC(=O)[C@H](CO)NC(=O)CNC(=O)[C@H](CCCCN)NC(=O)[C@H](CC(=O)O)NC(=O)[C@@H](N)C(C)C)[C@@H](C)O)C(=O)N[C@@H](Cc1ccc(O)cc1)C(=O)N[C@@H](CC(N)=O)C(=O)N[C@@H](CCCNC(=N)N)C(=O)N[C@@H](CC(N)=O)C(=O)NCC(=O)N1CCC[C@H]1C(=O)N[C@@H](CCCNC(=N)N)C(=O)N[C@@H](CCC(N)=O)C(=O)N[C@@H](CC1CCCCC1)C(=O)N[C@@H](CC(=O)O)C(=O)N[C@@H](CC(C)C)C(=O)N[C@@H](Cc1ccccc1)C(=O)O, Fusion of pyrrhocoricin, GPR linker and P7) [P116 (Py-P7), …haDLF-OH] | 4.3 | 119 | -9.61 | -13.9 | – | – | – | – | 12 | 37 | -10.3 | -22.3 | – | – | – | – | fold higher affinity for the ribosome than for SC [11]: 3 fold
